Source: US20230059181A1

Target: Human CD64 (FcγRI), His-tagged (human) (UniProt P12314)
Assay: SPR single cycle kinetics, 1:1 model, His-CD64 captured, antibody as analyte

Human CD64 (FcγRI), His-tagged (human), sequence (P12314 16-288 limits assumed): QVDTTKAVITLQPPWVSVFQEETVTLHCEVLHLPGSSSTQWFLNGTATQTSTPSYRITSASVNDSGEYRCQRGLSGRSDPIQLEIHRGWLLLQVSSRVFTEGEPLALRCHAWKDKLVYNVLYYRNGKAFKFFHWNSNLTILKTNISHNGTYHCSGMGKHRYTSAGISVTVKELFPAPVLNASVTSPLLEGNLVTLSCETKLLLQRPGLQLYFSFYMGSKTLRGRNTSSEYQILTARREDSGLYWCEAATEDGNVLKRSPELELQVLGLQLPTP

| Kd | koff | kon | Substance |
| --- | --- | --- | --- |
| 5.97 nM | 0.00249 s⁻¹ | 417000 M⁻¹ s⁻¹ | Irrelevant IgG4 (antibody) |
| 2.61 nM | 0.00083 s⁻¹ | 319000 M⁻¹ s⁻¹ | Irrelevant IgG1 (antibody) |
